Here are results for eleven molecules from patent publication US20170267766A1 (PIERRE FABRE MEDICAMENT, published 2017).

Test [1] addresses T1, monkey IGF-1R (on COS-7 cells) (African green monkey).
T1 construct: whole, on cells
In words: FACS titration, Cos-7. How it is done: (§1) The binding properties of the humanized variants were evaluated by FACS analyses on the human MCF-7 breast adenocarcinoma cell line and the monkey cell line Cos-7 using increasing antibody concentrations. For that purpose, cells (1×10⁶ cells/ml) were incubated with anti-IGF-1R humanized antibodies for 20 min. at 4° C. in FACS buffer (PBS, 0.1% BSA, 0.01% NaN3). They were then washed 3 times and incubated with the appropriate secondary antibody coupled with Alexa 488 for 20 additional minutes at 4° C. in the dark before being washed 3 times in FACS buffer. The binding of anti-IGF-1R antibodies was immediately performed on viable cells which were identified using propidium iodide (that stains dead cells). The EC₅₀ of binding expressed in molarity (M) was calculated using a nonlinear regression analysis (GraphPad Prims 4.0).

Test [2] concerns the target T2, human IGF-1R (native, on cells) (human, UniProt P08069 31-1367).
T2 construct: also called hIGF-1R; native IGF-1R on MCF-7 cells
Nature of the test: FACS titration, MCF-7. How it is done: as §1

Test [3] has as its target T1, monkey IGF-1R (on COS-7 cells). In words: cell-based or functional assay.
Test [4] concerns the target T2, human IGF-1R (native, on cells). In words: FACS titration, hIGF-1R transfected cells. How it is done: Briefly, increasing concentrations of chimeric mAbs were incubated with cells for 20 min at 4° C. in FACS buffer (PBS, 0.1% BSA, 0.01% NaN₃). Cells were then washed 3 times and incubated with the appropriate secondary antibody coupled with Alexa 488 before being incubated for 20 additional minutes at 4° C. in the dark and then washed 3 times in FACS buffer. The binding of anti-IGF-1R antibodies was immediately performed on viable cells which were identified using propidium iodide (that stains dead cells). The binding EC₅₀ expressed in molarity (M) was calculated using a nonlinear regression analysis (GraphPad Prims 4.0).

The target is the same in test [5]. In words: FACS titration, MCF-7. How it is done: The binding properties of a series of anti-IGF-1R antibodies were evaluated by FACS analyses on the human MCF-7 breast adenocarcinoma cell line (ATCC#HTB-22) using increasing antibody concentrations. For that purpose, cells (1×10⁶ cells/ml) were incubated with anti-IGF-1R antibodies for 20 min. at 4° C. in FACS buffer (PBS, 0.1% BSA, 0.01% NaN₃). They were then washed 3 times and incubated with the appropriate secondary antibody coupled with Alexa 488 for 20 additional minutes at 4° C. in the dark before being washed 3 times in FACS buffer. The binding of anti-IGF-1R antibodies was immediately performed on viable cells which were identified using propidium iodide (that stains dead cells). The maximum of signal intensity obtained with each antibody was designed as Bₘₐₓ and expressed in mean of fluorescence intensity (MFI). The EC₅₀ of binding expressed in molarity (M) was calculated using a nonlinear regression analysis (GraphPad Prims 4.0).
This is another data set of the same source.

Test [6] has the same target. Nature of the test: cell-based or functional assay.
Test [7] has the same target. In words: cell-based or functional assay. This is another data set of the same source.

B1: hz208F2 H052/L018 (antibody, human IgG1, kappa, V domains shown)
VH: QVQLVQSGAEVKKPGASVKVSCKASGYTFTSYYMHWVRQAPGQGLEWMGWIWPGDGSTKYAQKFQGRVTMTRDTSTSTVYMELSSLRSEDTAVYFCASPMITPNYAMDYWGQGTLVTVSS
VL: DIQMTQSPSSLSASVGDRVTITCRASQDISKYLNWYQQKPGKAPKLLIYYTSRLQSGVPSRFSGRGSGTDYSLTISSLQPEDFATYFCQQGSTLPYTFGGGTKVEIKR
notes: humanized 208F2 variant
One may read the EC50 as the concentration at which the effect is half-maximal. Regarding B1, the concentration for a half-maximal effect (EC50) in test [1] worked out at 0.99 nM; in test [2], 0.84 nM.

B2: hz208F2 H068/L018 (antibody, human IgG1, kappa, V domains shown)
VH: QVQLVQSGAEVKKPGASVKVSCKASGYTFTSYYMHWVRQAPGQGLEWMGWIWPGDGSTKYAQKFQGRVTMTRDTSTNTVYMELSSLRSEDTAVYFCASPMITPNYAMDYWGQGTLVTVSS
VL: DIQMTQSPSSLSASVGDRVTITCRASQDISKYLNWYQQKPGKAPKLLIYYTSRLQSGVPSRFSGRGSGTDYSLTISSLQPEDFATYFCQQGSTLPYTFGGGTKVEIKR
notes: humanized 208F2 variant
Take B2: the EC50 in test [1] was 1.2 nM; in test [2], 1.1 nM.

B3: hz208F2 H071/L018 (antibody, human IgG1, kappa, V domains shown)
VH: QVQLVQSGAEVKKPGASVKVSCKASGYTFTSYYMHWVRQAPGQGLEWMGWIWPGDGSTKYAQKFQGRVTMTRDTSTNTVYMELSSLRSEDTAVYYCASPMITPNYAMDYWGQGTLVTVSS
VL: DIQMTQSPSSLSASVGDRVTITCRASQDISKYLNWYQQKPGKAPKLLIYYTSRLQSGVPSRFSGRGSGTDYSLTISSLQPEDFATYFCQQGSTLPYTFGGGTKVEIKR
notes: humanized 208F2 variant
For B3, the figures for the EC50 in test [1] and in test [2] were 1.1 nM and 0.55 nM, respectively.

B4: hz208F2 H057/L018 (antibody, human IgG1, kappa, V domains shown)
VH: QVQLVQSGAEVKKPGASVKVSCKASGYTFTSYYIHWVRQAPGQGLEWMGWIWPGDGSTKYAQKFQGRVTMTRDKSTNTVYMELSSLRSEDTAVYYCASPMITPNYAMDYWGQGTLVTVSS
VL: DIQMTQSPSSLSASVGDRVTITCRASQDISKYLNWYQQKPGKAPKLLIYYTSRLQSGVPSRFSGRGSGTDYSLTISSLQPEDFATYFCQQGSTLPYTFGGGTKVEIKR
notes: humanized 208F2 variant
Consider B4, for which the EC50 is 0.83 nM in test [1] and 0.58 nM in test [2].

B5: hz208F2 H076/L018 (antibody, human IgG1, kappa, V domains shown)
VH: QVQLVQSGAEVKKPGASVKVSCKASGYTFTSYYIHWVRQAPGQGLEWMGWIWPGDGSTKYAQKFQGRVTMTRDTSTSTVYMELSSLRSEDTAVYYCASPMITPNYAMDYWGQGTLVTVSS
VL: DIQMTQSPSSLSASVGDRVTITCRASQDISKYLNWYQQKPGKAPKLLIYYTSRLQSGVPSRFSGRGSGTDYSLTISSLQPEDFATYFCQQGSTLPYTFGGGTKVEIKR
notes: humanized 208F2 variant
With B5, the concentration for a half-maximal effect (EC50) in test [1] was found to be 1.1 nM; in test [2], 0.65 nM.

B6: hz208F2 H052/L021 (antibody, human IgG1, kappa, V domains shown)
VH: QVQLVQSGAEVKKPGASVKVSCKASGYTFTSYYMHWVRQAPGQGLEWMGWIWPGDGSTKYAQKFQGRVTMTRDTSTSTVYMELSSLRSEDTAVYFCASPMITPNYAMDYWGQGTLVTVSS
VL: DIQMTQSPSSLSASVGDRVTITCRASQDISKYLNWYQQKPGKAPKLLIYYTSRLHSGVPSRFSGRGSGTDFSLTISSLQPEDFATYFCQQGSTLPYTFGGGTKVEIKR
notes: humanized 208F2 variant
For B6, the EC50 stood at 1.2 nM in test [1] and 0.57 nM in test [2].

B7: hz208F2 H077/L018 (antibody, human IgG1, kappa, V domains shown)
VH: QVQLVQSGAEVKKPGASVKVSCKASGYTFTSYYIHWVRQAPGQGLEWMGWIWPGDGSTKYAQKFQGRVTMTRDTSTSTVYMELSSLRSEDTAVYFCASPMITPNYAMDYWGQGTLVTVSS
VL: DIQMTQSPSSLSASVGDRVTITCRASQDISKYLNWYQQKPGKAPKLLIYYTSRLQSGVPSRFSGRGSGTDYSLTISSLQPEDFATYFCQQGSTLPYTFGGGTKVEIKR
notes: humanized 208F2 variant
Take B7: the values for the EC50 in test [1] and in test [2] were 1.1 nM and 0.77 nM, respectively.

B8: c212A11 (antibody, human IgG1, kappa, V domains shown)
VH: QVQLQQSGPELVKPGASVKMSCKASGYTFTSYYIHWVKQRPGQGLEWIGWIWPGDGSTKYNEKFKGKTTLTADKSSSTAYMFLSSLTSEDSAVYFCASPMITPNYAMDYWGQGASVTVSS
VL: DIQMTQTTSSLSASLGDRVTISCRASQDINKYLNWYQQQPDGTVKLLIYYTSRLHSGVPSRFSGRGSGTDYSLTISNLEQEDIATYFCQQGSTLPYTFGGGTKLEIKR
notes: group G2; also called chimeric 212A11
In the case of B8, in test [3], the “% internalisation” value is 75% and the ΔMFI turned out to be 98 MFI. In test [4], this molecule gave a Bmax of 2510 MFI and an EC50 of 0.44 nM. In test [5], the Bmax worked out at 991 MFI and the EC50 was 0.67 nM. In addition, in test [6], the “% Internalization (MCF-7, 10 µg/ml, 4 h)” value was 80% and the ΔMFI came out at 322 MFI. In addition, the “hIGF-1R phosphorylation, % of that induced by IGF-1 (MCF-7, Ab 10 µg/ml)” value (from here on “hIGF-1R phosphorylation, %”) in test [7] is < 20%.

B9: c214F8 (antibody, human IgG1, kappa)
heavy: not shown
light: DIQMTQTTSSLSASLGDRVTFSCRASQDISKYLNWYQQQPDGTIKLLIYYTSRLHSGVPSRFSGRGSGTDYSLTITNLEQEDIATYFCQQGSALPYTFGGGTKLEIKRTVAAPSVFIFPPSDEQLKSGTASVVCLLNNFYPREAKVQWKVDNALQSGNSQESVTEQDSKDSTYSLSSTLTLSKADYEKHKVYACEVTHQGLSSPVTKSFNRGEC
notes: group G2; also called chimeric 214F8
B9: in test [3], the “% internalisation” value worked out at 72% and the ΔMFI turned out to be 98 MFI. For the same molecule, in test [4], the Bmax amounted to 2090 MFI and the EC50 came to 0.27 nM. In test [5], this molecule showed a Bmax of 1070 MFI and an EC50 of 0.5 nM. Also, in test [6], the “% Internalization (MCF-7, 10 µg/ml, 4 h)” value was 87% and the ΔMFI came out at 403 MFI. In test [7], the “hIGF-1R phosphorylation, %” value is < 20%.

B10: c213B10 (antibody, human IgG1, kappa)
heavy: not shown
light: DIQMTQTTSSLSASLGDRVTISCRASQDISKYLNWYQQQPDGTIKLLIYYTSRLHSGVPSRFSGRGSGTDYSLTITNLEQEDIATYFCQQGSALPYTFGGGTKLEIKRTVAAPSVFIFPPSDEQLKSGTASVVCLLNNFYPREAKVQWKVDNALQSGNSQESVTEQDSKDSTYSLSSTLTLSKADYEKHKVYACEVTHQGLSSPVTKSFNRGEC
notes: group G2; also called chimeric 213B10
With B10, in test [3], the “% internalisation” value is 73% and the ΔMFI turned out to be 101 MFI. In test [4], the Bmax was 2030 MFI and the EC50 was 0.33 nM. For the same molecule, in test [5], the Bmax amounted to 1100 MFI and the EC50 was 0.44 nM. Also, in test [6], the “% Internalization (MCF-7, 10 µg/ml, 4 h)” value turned out to be 85% and the ΔMFI came to 369 MFI. In test [7], the “hIGF-1R phosphorylation, %” value was < 20%.

B11: c219D6 (antibody, human IgG1, kappa, V domains shown)
VH: QVQLQQSGPELVKPGDSVKMSCKASGYSFTSYFIHWVKQRPGQGLEWIGWIWPGDGSTKYNEKFKGKTTLTTDKSSSTAYMFLNSLTSEDSAVYFCASPMITPNYAMDYWGQGASVTVSS
VL: DIQMTQTTSSLSASLGDRVTISCRASQDISKYLNWYQQQPDGTVKLLIYYTSRLHSGVPSRFSGRGSGTDYSLTISNLEQEDIATYFCQQGSTLPYTFGGGTKLEIKR
notes: group G2; also called chimeric 219D6
In the case of B11, in test [3], the “% internalisation” value came to 74% and the ΔMFI turned out to be 102 MFI. In test [4], this molecule gave a Bmax of 2520 MFI and an EC50 of 0.55 nM. Moreover, in test [5], the Bmax was found to be 993 MFI and the EC50 was found to be 0.47 nM. Also, in test [6], the “% Internalization (MCF-7, 10 µg/ml, 4 h)” value was 80% and the ΔMFI worked out at 353 MFI. Besides, the “hIGF-1R phosphorylation, %” value in test [7] is < 20%.
